B1: his6-cortactin, wild type (purified) [not stated] / GST-GluA2 C-terminal tail [not stated] (parent complex)
chain 1: not shown
chain 2: EFCYKSRAEAKRMKVAKNPQNINPSSSQNSQNFATYKEGYNVYGIESVKI

Five variants from article PMC5841360 (2018) can be followed below.

Variants of B1 are the subject of the test. Description: GST pulldown, Western blot quantification; Input is 0.2% of offered protein; n = 3-6; read off a plot. On the technique in general: In western blotting, separated proteins are transferred to a membrane and probed.
Turning to chain 2 P19A, chain 2 Q20A, the percent of parent is ~83. The result for chain 2 R12A, chain 2 M13A reads ~55. The result for chain 2 K17A, chain 2 N18A reads ~76; that for chain 2 K11A, ~22. Consider chain 2 K14A, chain 2 V15A, for which the percent of parent was ~37.
